B1: TRIM55 (parent)
chain: ICPICLEMFTKPVVILPCQHNLCR
B2: TRIM63 (parent)
chain: QRITQEQEKKLSFIEALIQQYQEQ

Variants of: B1
Experiment: protein stability index of a GFP-peptide fusion (GPS, HEK-293T) (PSI 1-6); higher = more stable
Conditions: c terminus: a fixed tail appended
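Note: lentivirally expressed fusions sorted by FACS into six bins by GFP to DsRed ratio, PSI derived from sequencing read proportions per bin multiplied by bin number.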

Protein stability index: each site, then its substitutions
R24: S 1.85, C 2.27, I 2.24, K 2.32, N 2.95, L 2.11, A 1.92, G 2.41, M 2.15, T 2.71, Y 2.13, D 2.27, V 1.83, F 2.01, P 2.32, W 2.35, Q 2.57, E 2.11, H 2.4
N21: F 2.53, R 2.31, K 1.74, E 2.54, Y 2.48, G 2.71, M 2.29, I 2.04, D 2.23, W 2.19, S 2.93, A 2.73, T 2.39, H 2.39, L 2.01, P 2.52, V 2.35, Q 2.17, C 2.2
C23: H 2.92, R 2.47, E 2.65, T 2.64, S 1.93, L 2.28, Q 2.21, D 1.97, P 2.24, M 2.43, W 2.05, N 2.13, A 1.72, K 2.03, Y 2.25, I 1.82, V 2.46, F 1.73, G 2.01
L22: C 2.04, Q 2.72, W 2.44, F 1.99, V 2.55, N 2.54, M 3.14, S 2.4, D 2.64, T 2.17, P 2.29, G 2.44, H 2.48, A 2.36, I 2.31, K 2.38, Y 2.08, E 2.45, R 2.51
H20: W 1.27, Y 1.52

Variants of: B2
Experiment: as above
Conditions: c terminus: a fixed tail appended

Protein stability index: each site, then its substitutions
R2: I 1.89, K 2.26, T 2.42, P 3.23, A 2.57, F 2.06, L 2.63, Y 1.75, Q 2.23, H 2.44, D 3.23, N 2.91, E 1.88
E6: R 1.88, C 1.83, D 2.12, Q 1.75, M 2.27, T 1.7, A 2.24, F 1.9, K 2, L 1.8
L11: N 2.79, W 2.26, F 1.87, A 3.13, H 2.8, D 3.94, E 3.98, K 1.56, Q 3.08, R 2.24, M 1.82, S 2.63, V 1.95, I 2.64
E23: H 2.14, F 2.01, S 2, M 1.51, N 1.9, Q 2.18, C 2.37, A 1.96, R 1.97
Q20: M 2.36, P 3.43, S 2.4, L 2.43, K 5.33, D 2.35, F 2.6, R 2.28, C 2.23
Q19: R 1.38, E 2.56, I 2.73, P 3.19, H 2.04, K 2.48, Y 1.64, C 2.6, F 1.91, G 2.51
Y21: F 1.76, T 3.23, C 1.75, N 4.41, M 1.98, G 3.61, K 3.8, P 4.33, R 3.91, A 3.38, S 3.19, W 1.8, H 2.55
K10: A 2.1, N 3, E 3, F 2.1, D 3.67, Q 1.95, V 2.02, Y 1.73, R 2.47
Q7: G 1.83, E 2.76, D 3.02, C 2.83, L 3.44, F 2.02, Y 2.12, V 3.28, H 2.32, N 3.1, M 2.46
I18: W 2.7, M 2.22, E 2.2, R 3.4, C 2.67, H 3.6, V 3.12, Y 3.29, G 3.67
K9: E 3.27, F 2.78, I 1.79, Y 2.2, W 3.8, S 2.7, D 2.77, M 2.44, R 2.74
A16: C 2.46, L 1.7, R 2.63, G 3.33, V 1.76, Y 2.31, T 2.15, Q 1.83, D 3.16, E 2.95, S 2.45, K 2.25, H 2.45
S12: N 2.74, L 2.39, K 1.91, M 1.86, C 2.25, D 2.86, G 2.71, T 3.23, A 3.19, V 1.81
Q5: Y 2.27, N 2.32, I 2.39, A 2.5, K 2.82, T 2.58, M 2.33, L 1.68, P 2.13, C 2.39
E15: C 1.44, P 3.48, Q 2.23, R 2.16, H 2.28, I 1.6, W 2.5, N 2.04, S 2.12, L 2.56
L17: G 4.54, I 2.28, V 2.2, K 3.75, F 2.62, Y 1.92, M 2.93, S 4.13, H 3.06, R 4.34, Q 4.03
I14: P 4.55, D 4.69, Q 3.22, S 3.48, C 2.02, T 2.35, F 3, Y 2.87, R 3.15, H 3.2, G 4.31
Q24: E 2.14, M 2.57, T 2.36, S 1.98, H 2.49, V 2.24, I 2.52, W 1.46, K 2.06, P 2.68, F 1.97, C 2.51
T4: P 2.87, Q 2.89, L 2.63, R 2.79, K 2.8, C 2.1, V 2.87, F 2.2, Y 1.66, A 3.01
I3: D 2.22, H 2.54, C 2.3, P 2.62, A 2.37, K 2.37, Q 2.33, Y 2.16, V 2.56, M 1.83, W 2.44
Q22: T 2.22, D 1.77, R 2.42, L 2.1, E 1.5, G 2.89, F 2.02, N 2.79, I 1.35, A 2.36
F13: S 4.52, Y 2.62, D 4.83, P 4.68, Q 4.33, N 4.66, E 4.78, L 2.72, H 4.14, G 4.6
E8: I 1.9, G 1.87, F 2.03, C 2.09, T 2.28, H 1.75, R 1.56, S 2.17, Y 1.82, A 2.18, L 1.86
Q1: D 2.32, F 2.91, K 2.17, N 2.31, C 2.11, A 2.3, R 2.16, P 2.17, M 2.36, H 2.84, W 1.95
